Test results: patent US20260116937A1

How the values were obtained:
C3b (human) [1] = target: C3b (human) (UniProt P01024); assay: ELISA
C3b (human) [2] = target: C3b (human) (UniProt P01024); assay: ELISA; culture supernatant

Chain of C3b (human) (P01024 749-1663, chain 1 of 2): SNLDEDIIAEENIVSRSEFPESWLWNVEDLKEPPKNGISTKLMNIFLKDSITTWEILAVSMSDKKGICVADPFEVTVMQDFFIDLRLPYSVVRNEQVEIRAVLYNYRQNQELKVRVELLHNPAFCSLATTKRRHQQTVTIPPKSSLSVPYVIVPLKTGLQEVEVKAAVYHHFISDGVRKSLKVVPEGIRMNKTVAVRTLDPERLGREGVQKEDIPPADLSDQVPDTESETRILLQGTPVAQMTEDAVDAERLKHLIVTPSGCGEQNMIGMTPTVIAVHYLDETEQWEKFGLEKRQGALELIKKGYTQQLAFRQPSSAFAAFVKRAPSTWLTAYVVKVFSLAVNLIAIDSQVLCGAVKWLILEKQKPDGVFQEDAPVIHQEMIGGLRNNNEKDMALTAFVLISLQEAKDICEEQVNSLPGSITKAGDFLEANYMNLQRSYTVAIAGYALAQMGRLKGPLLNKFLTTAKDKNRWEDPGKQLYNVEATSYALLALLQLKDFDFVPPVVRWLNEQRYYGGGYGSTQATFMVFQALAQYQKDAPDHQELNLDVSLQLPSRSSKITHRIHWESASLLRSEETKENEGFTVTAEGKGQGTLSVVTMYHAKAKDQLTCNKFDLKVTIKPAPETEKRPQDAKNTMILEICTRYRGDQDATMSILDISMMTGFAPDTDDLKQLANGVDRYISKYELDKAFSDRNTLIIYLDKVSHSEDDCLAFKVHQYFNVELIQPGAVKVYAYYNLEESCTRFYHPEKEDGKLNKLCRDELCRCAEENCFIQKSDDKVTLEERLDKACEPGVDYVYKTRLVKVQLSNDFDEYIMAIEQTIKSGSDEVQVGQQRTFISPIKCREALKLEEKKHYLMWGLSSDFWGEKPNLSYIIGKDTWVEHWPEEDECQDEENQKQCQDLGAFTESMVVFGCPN
Chain of C3b (human) (P01024 23-667, chain 2 of 2): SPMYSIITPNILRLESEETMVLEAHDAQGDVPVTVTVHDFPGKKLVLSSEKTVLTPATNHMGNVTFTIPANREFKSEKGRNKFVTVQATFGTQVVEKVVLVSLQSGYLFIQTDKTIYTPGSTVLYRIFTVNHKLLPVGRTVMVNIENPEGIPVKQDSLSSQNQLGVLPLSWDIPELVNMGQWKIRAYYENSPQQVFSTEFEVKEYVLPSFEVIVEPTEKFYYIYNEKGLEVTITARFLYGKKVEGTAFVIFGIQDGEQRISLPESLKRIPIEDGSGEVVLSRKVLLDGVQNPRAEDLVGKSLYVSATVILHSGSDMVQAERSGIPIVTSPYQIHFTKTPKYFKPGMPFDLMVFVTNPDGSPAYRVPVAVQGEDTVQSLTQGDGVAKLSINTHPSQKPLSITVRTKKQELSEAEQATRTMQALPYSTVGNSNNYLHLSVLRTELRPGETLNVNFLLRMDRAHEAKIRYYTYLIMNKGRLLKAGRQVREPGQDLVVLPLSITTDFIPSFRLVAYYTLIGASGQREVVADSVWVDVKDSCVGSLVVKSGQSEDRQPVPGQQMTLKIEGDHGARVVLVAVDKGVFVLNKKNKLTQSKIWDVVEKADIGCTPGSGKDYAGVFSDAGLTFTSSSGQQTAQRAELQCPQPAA

Question: What does the source list for “Factor H-like protein 1 (FHL-1) (from UniProt P08603 19-445)”?
Answer: EC50 (C3b (human) [1]): 7.1 nM; EC50 (C3b (human) [2]): 6.9 nM
